Here are results for 26 molecules from US20080274978A1 (POSTECH FOUNDATION, published 2008).

Where no end group is shown, it is not given here. [ ]: non-standard residue; d: D form. Where only a bound is given, the exact number is not on record here.

The target in test [1] is T1, Formyl peptide receptor like 1 (FPRL1) (human, UniProt P25090 1-351).
T1 sequence (looked up): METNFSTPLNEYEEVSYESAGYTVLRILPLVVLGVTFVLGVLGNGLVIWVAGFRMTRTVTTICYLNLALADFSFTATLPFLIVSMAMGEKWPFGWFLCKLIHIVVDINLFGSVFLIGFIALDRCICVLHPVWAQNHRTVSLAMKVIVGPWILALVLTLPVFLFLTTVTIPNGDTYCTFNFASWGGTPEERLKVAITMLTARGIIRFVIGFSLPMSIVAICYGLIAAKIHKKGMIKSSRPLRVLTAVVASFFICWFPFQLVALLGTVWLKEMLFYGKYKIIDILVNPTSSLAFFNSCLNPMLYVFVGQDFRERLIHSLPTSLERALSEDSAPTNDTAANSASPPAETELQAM
The test is described as follows: cell-based or functional assay.

The target of test [2] is T1, Formyl peptide receptor like 1 (FPRL1). The test is described as follows: displacement of 125I-WKYMVm (50 pM) from FPRL1-expressing RBL-2H3 cells. Background: Loss of bound radioactivity is the signal in a displacement assay; it reports binding, not function.
Protocol: Ligand binding analysis was performed as previously described (24). Briefly, FPR-expressing RBL-2H3 cells were seeded at 1×10⁵ cells per well into a 24 well plate and cultured overnight. […] The samples were then washed 5 times with ice-cold binding buffer, and 200 μl of lysis buffer (20 mM Tris, pH 7.5, 1% Triton X-100) was added to each well. After 20 min at room temperature, the lysates were collected and counted using a γ-ray counter (24).
For test [3] the target is unchanged. The test is described as follows: cell-based or functional assay. This is another data set of the same source.

B1: WWWWRW (peptide)
peptide: WWWWRW
Regarding B1, the “Ca^2+ (FPRL1) IC50” value in test [1] was found to be 2700 nM.

B2: WWWM (peptide)
peptide: WWWM
Turning to B2, the “Ca^2+ (FPRL1) IC50” value in test [1] was 5900 nM.

B3: WWRWWW (peptide)
peptide: WWRWWW
Take B3: the “Ca^2+ (FPRL1) IC50” value in test [1] is 58 nM.

B4: WRWW (peptide)
peptide: WRWW
As to B4, the “Ca^2+ (FPRL1) IC50” value in test [1] is above 10000 nM.

B5: WWWW (peptide)
peptide: WWWW
B5: the “Ca^2+ (FPRL1) IC50” value in test [1] was 860 nM.

B6: LRWWWW (peptide)
peptide: LRWWWW
B6: in test [1], the “Ca^2+ (FPRL1) IC50” value came to 1100 nM.

B7: WWWWMR (peptide)
peptide: WWWWMR
On to B7, for which the “Ca^2+ (FPRL1) IC50” value in test [1] was 5700 nM.

B8: WWWWWw (peptide)
peptide: WWWWW[dW]
In the case of B8, the “Ca^2+ (FPRL1) IC50” value in test [1] is above 10000 nM.

B9: WWWWWM (peptide)
peptide: WWWWWM
Take B9: in test [1], the “Ca^2+ (FPRL1) IC50” value worked out at 130 nM.

B10: wWRWWW (peptide)
peptide: [dW]WRWWW
Turning to B10, in test [1], the “Ca^2+ (FPRL1) IC50” value was 110 nM.

B11: WWWWWR (peptide)
peptide: WWWWWR
As to B11, the “Ca^2+ (FPRL1) IC50” value in test [1] was 220 nM.

B12: WWWw (peptide)
peptide: WWW[dW]
As to B12, in test [1], the “Ca^2+ (FPRL1) IC50” value was above 10000 nM.

B13: RWWW (peptide)
peptide: RWWW
Regarding B13, the “Ca^2+ (FPRL1) IC50” value in test [1] amounted to 600 nM.

B14: WWWRWW (peptide)
peptide: WWWRWW
Take B14: in test [1], the “Ca^2+ (FPRL1) IC50” value worked out at 470 nM.

B15: WRW (peptide)
peptide: WRW
Turning to B15, the “Ca^2+ (FPRL1) IC50” value in test [1] is above 10000 nM.

B16: WWWWWW (peptide)
peptide: WWWWWW
With B16, the “Ca^2+ (FPRL1) IC50” value in test [1] was above 10000 nM.

B17: Arg-Arg-Trp-Trp-Trp-Trp-CONH2 (RRWWWW, RRW^4) (peptide)
peptide: RRWWWW-NH2
Regarding B17, in test [2], the IC50 was found to be 2400 nM.

B18: Asp-Arg-Trp-Trp-Trp-Trp-CONH2 (DRWWWW, DRW^4) (peptide)
peptide: DRWWWW-NH2
For B18, the IC50 in test [2] was 3400 nM.

B19: Arg-His-Trp-Trp-Trp-Trp-CONH2 (RHWWWW, RHW^4) (peptide)
peptide: RHWWWW-NH2
On to B19, for which, in test [2], the IC50 is 3200 nM.

B20: Trp-Arg-Trp-Trp-Trp-Trp-CONH2 (WRWWWW, WRW^4) (peptide)
peptide: WRWWWW-NH2
As to B20, the “Ca^2+ (FPRL1) IC50” value in test [1] was 1000 nM. Further, the IC50 in test [2] amounted to 230 nM.

B21: RWWw (peptide)
peptide: RWW[dW]
For the molecule B21, the “Ca^2+ (FPRL1) IC50” value in test [1] is above 10000 nM.

B22: LWWWWW (peptide)
peptide: LWWWWW
For B22, in test [1], the “Ca^2+ (FPRL1) IC50” value was 500 nM.

B23: wWRWWM (peptide)
peptide: [dW]WRWWM
modifications: not fully specified; printed as wWRWWM
With B23, the “Ca^2+ (FPRL1) IC50” value in test [1] was 8.2 nM. Besides, the “antagonistic activity on intracellular calcium concentration increase, relative to WRWWWW (SEQ ID NO:4)” value in test [3] was around 100 times.

B24: RWWM (peptide)
peptide: RWWM
Turning to B24, the “Ca^2+ (FPRL1) IC50” value in test [1] turned out to be 650 nM.

B25: WRRWWW (peptide)
peptide: WRRWWW
Consider B25, for which the “Ca^2+ (FPRL1) IC50” value in test [1] is above 10000 nM.

B26: WWRWWM (peptide)
peptide: WWRWWM
B26: the “Ca^2+ (FPRL1) IC50” value in test [1] amounted to 83 nM.

As usually defined, the IC50 is the concentration that inhibits the measured activity by half. A high value points to weaker potency.
